The values below come from PMC5331220, “Oxidation of F-actin controls the terminal steps of cytokinesis” (Nature Communications, 2017).

Where a chain is given by its changes, count along the chain named. Names may count otherwise. “And” between values parts separate entries of the source, which are not always exact repeats. Identical values can stand only once.

Sequences and labels used below:
B1: MICAL1^918-1067 wild-type (C-terminal domain of human MICAL1) (domain or fragment, UniProt Q8TDZ2 918-1067, looked up)
chain: KEEEMKRFCKAQTIQRRLNEIEAALRELEAEGVKLELALRRQSSSPEQQKKLWVGQLLQLVDKKNSLVAEEAELMITVQELNLEEKQWQLDQELRGYMNREENLKTAADRQAEDQVLRKLVDLVNQRDALIRFQEERRLSELALGTGAQG
notes: also called C-term MICAL1; source: E. coli BL21-CodonPlus-RILP or BL21-Gold, purified (HisTrap, rTEV cleavage, Superdex-75); not shown: His6, N-terminal, cleaved
B2: MICAL1^918-1067 S1 mutant (E946K, V950D, E953K, V971E, L975R, V978E) (domain or fragment, human, UniProt Q8TDZ2 918-1067, looked up)
chain: B1 chain with E29K, V33D, E36K, V54E, L58R, V61E
notes: the supplement and the results print V978E; source: E. coli BL21-CodonPlus-RILP or BL21-Gold, purified (HisTrap, rTEV cleavage, Superdex-75); not shown: His6, N-terminal, cleaved
B3: Rab35^1-199 (domain or fragment)
chain: not shown
notes: Rab35 GTPase, human, residues 1-199; Loaded with GppNHp; also called GppNHp-Rab35 1-199; source: E. coli BL21-CodonPlus-RILP or BL21-Gold, purified (HisTrap, rTEV cleavage, Superdex-75); not shown: His6, N-terminal, cleaved
B4: Rab35^1-175 (domain or fragment)
chain: not shown
notes: Rab35 GTPase, human, residues 1-175 (lacks the last 26 aa); Loaded with GppNHp (assay a1) or with GDP (assay a2); also called GppNHp-Rab35 1-175; GDP-Rab35 1-175; source: E. coli BL21-CodonPlus-RILP or BL21-Gold, purified (HisTrap, rTEV cleavage, Superdex-75); not shown: His6, N-terminal, cleaved
B5: GST-tagged MICAL1^879–1067 (domain or fragment, human, UniProt Q8TDZ2 879-1067, looked up)
chain: EEEDVPLDSDVEQALQTFAKTSGTMNNYPTWRRTLLRRAKEEEMKRFCKAQTIQRRLNEIEAALRELEAEGVKLELALRRQSSSPEQQKKLWVGQLLQLVDKKNSLVAEEAELMITVQELNLEEKQWQLDQELRGYMNREENLKTAADRQAEDQVLRKLVDLVNQRDALIRFQEERRLSELALGTGAQG
notes: source: E. coli BL21-AI, purified (glutathione Sepharose 4B)

Conditions in all cases: both partners purified
Assay [1] has as its target B4. The experiment in a line: ITC; MicroCal ITC-200, 10 °C; C-terminal MICAL1 domain 60 μM in the cell, GppNHp-Rab35 480 μM added in 2 μl aliquots; 50 mM Tris pH 8, 150 mM NaCl, 2 mM MgCl2, 2 mM TCEP, 5% glycerol; one-site model. On the technique in general: ITC needs no label: the signal is the heat of the interaction.
The target of assay [2] is B3. The description is as above.
Assay [3] addresses B1. The assay is described as above.
The target of assay [4] is B2. The assay is described as above.
Assay [5] has as its target T1, MICAL1^879-1067 wild-type (human, UniProt Q8TDZ2 879-1067).
T1 construct: source: E. coli BL21-CodonPlus-RILP or BL21-Gold, purified (HisTrap, rTEV cleavage, Superdex-75); not shown: His6, N-terminal, cleaved
T1 sequence (looked up): B5 chain
Described as above.

The target of assay [6] is T2, His-tagged MICAL1^FAD-CH-LIM (MICAL1^1–843) (human, UniProt Q8TDZ2 1-843).
T2 construct: MICAL1, human, amino acids 1-843 (monooxygenase/FAD, CH and LIM domains); also called 6xHis-MICAL1^FAD-CH-LIM; source: E. coli BL21-AI, purified (Ni-NTA magnetic agarose beads)
T2 sequence (looked up): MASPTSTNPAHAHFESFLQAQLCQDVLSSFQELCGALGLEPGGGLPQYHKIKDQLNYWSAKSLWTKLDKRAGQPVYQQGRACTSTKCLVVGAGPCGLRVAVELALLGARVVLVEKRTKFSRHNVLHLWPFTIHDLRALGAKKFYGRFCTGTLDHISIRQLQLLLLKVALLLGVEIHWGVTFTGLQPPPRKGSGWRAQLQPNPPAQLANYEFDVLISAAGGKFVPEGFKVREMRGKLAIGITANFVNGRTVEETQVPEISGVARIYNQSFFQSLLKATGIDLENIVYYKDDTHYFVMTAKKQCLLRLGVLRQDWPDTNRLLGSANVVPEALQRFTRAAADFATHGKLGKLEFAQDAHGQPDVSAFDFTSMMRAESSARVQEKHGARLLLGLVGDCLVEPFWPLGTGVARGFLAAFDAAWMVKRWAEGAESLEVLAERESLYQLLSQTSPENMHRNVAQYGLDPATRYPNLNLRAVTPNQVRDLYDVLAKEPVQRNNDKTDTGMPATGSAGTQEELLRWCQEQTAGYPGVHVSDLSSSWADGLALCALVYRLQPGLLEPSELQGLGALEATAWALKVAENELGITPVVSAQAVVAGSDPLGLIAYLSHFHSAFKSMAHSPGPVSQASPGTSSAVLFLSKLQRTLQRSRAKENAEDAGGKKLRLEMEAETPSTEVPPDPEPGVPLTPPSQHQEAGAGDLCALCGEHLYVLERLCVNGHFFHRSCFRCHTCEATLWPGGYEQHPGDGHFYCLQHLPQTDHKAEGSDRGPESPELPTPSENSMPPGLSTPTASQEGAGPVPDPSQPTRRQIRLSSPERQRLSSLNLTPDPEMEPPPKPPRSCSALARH
In words: pull-down; GST-MICAL1^879–1067 on glutathione Sepharose 4B beads, incubated with 6xHis-MICAL1^FAD-CH-LIM alone or with increasing amounts of Rab35-GppNHp in 50 mM Tris pH 8, 150 mM NaCl, 2 mM MgCl2, 1 mM DTT; anti-6xHis and anti-Rab35 blots.

As for B1, the Kd (usually the free concentration of one partner at which half of the binding sites on the other are occupied at equilibrium, for simple one-to-one binding) in assay [1] is 8.3 µM and 4.5 µM; in assay [2] it was 4.5 µM and 5 µM and 4.8 µM. For B2, the dissociation constant Kd in assay [1] was 7.9 µM and 6.4 µM and 7.2 µM. With B3, the stoichiometry N (as a rule, the number of molecules, sites or subunits per partner or assembly) in assay [3] came out at 1.07. Turning to B4, the “stoichiometry N” value in assay [4] amounted to 0.95; in assay [5], 0.8; in assay [3] it was 1.09. Moreover, binding in assay [5] was put at a Kd of 13 µM. Consider B5, for which the binding result in assay [6] is given as “binds”.
